Results published in patent US20240018501A1, “HIGHER PERFORMANCE PROTEASES FOR SCARLESS PEPTIDE TAG REMOVAL” (priority 2017, published 2024).

Legend:
[1] = system: His6-ElxA D-18A
[2] = system: His6-ElxA D-5A
[3] = system: His6-ElxA F-19A
[4] = system: His6-ElxA L-17A
[5] = system: His6-ElxA L-4A
[6] = system: His6-ElxA N-16A
[7] = system: His6-ElxA N-3A
[8] = system: His6-ElxA P-2A
[9] = system: His6-ElxA Q-1A
[10] = system: His6-ElxA wt
[11] = target: His6-NisA (UniProt P13068)
[12] = system: Glx-AAIVK
[13] = system: T1, OBu-AGPAIR
T1 sequence: AGPAIR

[14] = system: Obu-AAIVK
[15] = system: Obu-RAIVK
[16] = system: T2, Pyr-AAAVK
T2 sequence: AAAVK

[17] = system: Pyr-AAIAK
[18] = system: Pyr-AAIVA
[19] = system: Pyr-AAIVKBBIKAAKK
[20] = system: Pyr-AAIVK
[21] = system: T3, Pyr-AAIV
T3 sequence: AAIV

[22] = system: T4, Pyr-AAI
T4 sequence: AAI

[23] = system: Pyr-AAVLK
[24] = system: T5, Pyr-AA
T5 sequence: AA

[25] = system: T6, Pyr-APVLA
T6 sequence: APVLA

[26] = system: T7, Pyr-A
T7 sequence: A

[27] = system: Pyr-BPVLAAVAVAKKK
[28] = system: Pyr-DAIVK
[29] = system: Pyr-KAIVK
[30] = system: T8, Pyr-LGPAIK
T8 sequence: LGPAIK

[31] = system: Pyr-MAIVK
[32] = system: Pyr-NAIVK
[33] = system: Pyr-PAIVK
[34] = system: Pyr-RAIVK
[35] = system: lactocin S
[36] = target: CylLL″ with a 5-amino acid peptide remaining from the leader
[37] = target: CylLS″ with a 5-amino acid N-terminal peptide
[38] = target: HalM1-modified HalA1-GDVQAE
[39] = target: HalM2-modified HalA2-GDVQAE
[40] = target: T9, His6-NisA-GDVQAE, P13068
T9 chain: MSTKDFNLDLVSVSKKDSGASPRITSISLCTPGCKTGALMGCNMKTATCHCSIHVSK

[41] = target: His6-ProcA1.7 with GDVQAE inserted between the His6-tag sequence and ProcA1.7
[42] = target: His6-ProcA1.7-GDVQAE
[43] = target: NisA-I1C (with GDVQAE), P13068
[44] = target: ProcA1.7-GDVQAE-T1F
[45] = target: ProcA1.7-GDVQAE-T1G
[46] = target: ProcA1.7-GDVQAE-T1W
[47] = target: ProcA1.7-T1C (with GDVQAE)
[48] = target: linear CylLL
[49] = target: linear CylLS
[50] = target: modified CylLL
[51] = target: modified CylLS
[52] = target: peptides with Glu or Lys in the P1′ position (after GDVQAE)

MBP-ElxP
MBP-ElxP cleavage result by MALDI-TOF MS (+++ complete, ++ partial, + marginal cleavage) [1]: +++ | MBP-ElxP cleavage result by MALDI-TOF MS (+++ complete, ++ partial, + marginal cleavage) [2]: + | MBP-ElxP cleavage result by MALDI-TOF MS (+++ complete, ++ partial, + marginal cleavage) [3]: ++ | MBP-ElxP cleavage result by MALDI-TOF MS (+++ complete, ++ partial, + marginal cleavage) [4]: +++ | MBP-ElxP cleavage result by MALDI-TOF MS (+++ complete, ++ partial, + marginal cleavage) [5]: + | fold reduction of the ElxP catalytic efficiency against wild type ElxA [5]: reduction of ˜14-fold in the ElxP catalytic efficiency | MBP-ElxP cleavage result by MALDI-TOF MS (+++ complete, ++ partial, + marginal cleavage) [6]: +++ | MBP-ElxP cleavage result by MALDI-TOF MS (+++ complete, ++ partial, + marginal cleavage) [7]: +++ | MBP-ElxP cleavage result by MALDI-TOF MS (+++ complete, ++ partial, + marginal cleavage) [8]: ++ | efficiency of leader peptide removal (HPLC kinetics, FIG. 3D) [8]: did not obviously decrease the efficiency of MBP-ElxP to remove the N-terminal leader peptide from ElxA | MBP-ElxP cleavage result by MALDI-TOF MS (+++ complete, ++ partial, + marginal cleavage) [9]: + | fold reduction of the ElxP catalytic efficiency against wild type ElxA [9]: reduction of ˜14-fold in the ElxP catalytic efficiency | MBP-ElxP cleavage result by MALDI-TOF MS (+++ complete, ++ partial, + marginal cleavage) [10]: +++ | catalytic efficiency of cleavage (HPLC, leader peptide formation) [10]: MBP-ElxP cleaved the wild type ElxA with an efficiency of ˜240 M-'s 1 | cleavage by ElxP, MALDI-TOF MS [11]: ElxP does not cleave wild type NisA

His6-ElxO
Relative (kcat/Km) [12]: < 0.01 | kcat/Km (reduction by His6-ElxO, NADPH absorbance at 340 nm) [12]: < 0.03 M⁻¹ s⁻¹ | reduction by His6-ElxO with NADPH, LC-MS [13]: All the peptides were reduced as confirmed by LC-MS analysis | Relative (kcat/Km) [14]: 0.38 | kcat/Km (reduction by His6-ElxO, NADPH absorbance at 340 nm) [14]: 0.92 M⁻¹ s⁻¹ | Relative (kcat/Km) [15]: 0.62 | kcat/Km (reduction by His6-ElxO, NADPH absorbance at 340 nm) [15]: 1.51 M⁻¹ s⁻¹ | Relative (kcat/Km) [16]: 0.12 | kcat/Km (reduction by His6-ElxO, NADPH absorbance at 340 nm) [16]: 0.29 M⁻¹ s⁻¹ | Relative (kcat/Km) [17]: 0.65 | kcat/Km (reduction by His6-ElxO, NADPH absorbance at 340 nm) [17]: 1.59 M⁻¹ s⁻¹ | Relative (kcat/Km) [18]: 0.55 | kcat/Km (reduction by His6-ElxO, NADPH absorbance at 340 nm) [18]: 1.33 M⁻¹ s⁻¹ | Relative (kcat/Km) [19]: 5.83 | kcat/Km (reduction by His6-ElxO, NADPH absorbance at 340 nm) [19]: 14.2 M⁻¹ s⁻¹ | Relative (kcat/Km) [20]: 1 | kcat/Km (reduction by His6-ElxO, NADPH absorbance at 340 nm) [20]: 2.43 M⁻¹ s⁻¹ | Relative (kcat/Km) [21]: 0.47 | kcat/Km (reduction by His6-ElxO, NADPH absorbance at 340 nm) [21]: 1.13 M⁻¹ s⁻¹ | Relative (kcat/Km) [22]: 0.02 | kcat/Km (reduction by His6-ElxO, NADPH absorbance at 340 nm) [22]: 0.06 M⁻¹ s⁻¹ | reduction by His6-ElxO with NADPH [23]: His6-ElxO reduced both peptides | Relative (kcat/Km) [24]: < 0.01 | kcat/Km (reduction by His6-ElxO, NADPH absorbance at 340 nm) [24]: < 0.03 M⁻¹ s⁻¹ | reduction by His6-ElxO with NADPH, LC-MS [25]: All the peptides were reduced as confirmed by LC-MS analysis | Relative (kcat/Km) [26]: < 0.01 | kcat/Km (reduction by His6-ElxO, NADPH absorbance at 340 nm) [26]: < 0.03 M⁻¹ s⁻¹ | reduction by His6-ElxO with NADPH, LC-MS [27]: All the peptides were reduced as confirmed by LC-MS analysis | Relative (kcat/Km) [28]: 0.12 | kcat/Km (reduction by His6-ElxO, NADPH absorbance at 340 nm) [28]: 0.29 M⁻¹ s⁻¹ | Relative (kcat/Km) [29]: 1.74 | kcat/Km (reduction by His6-ElxO, NADPH absorbance at 340 nm) [29]: 4.22 M⁻¹ s⁻¹ | reduction by His6-ElxO with NADPH [30]: His6-ElxO reduced both peptides | Relative (kcat/Km) [31]: 6.4 | kcat/Km (reduction by His6-ElxO, NADPH absorbance at 340 nm) [31]: 15.5 M⁻¹ s⁻¹ | Relative (kcat/Km) [32]: 3.13 | kcat/Km (reduction by His6-ElxO, NADPH absorbance at 340 nm) [32]: 7.6 M⁻¹ s⁻¹ | Relative (kcat/Km) [33]: 0.05 | kcat/Km (reduction by His6-ElxO, NADPH absorbance at 340 nm) [33]: 0.13 M⁻¹ s⁻¹ | Relative (kcat/Km) [34]: 2.26 | kcat/Km (reduction by His6-ElxO, NADPH absorbance at 340 nm) [34]: 5.5 M⁻¹ s⁻¹ | reduction by His6-ElxO with NADPH, high-resolution LC-MS [35]: confirming the formation of dihydrolactocin S

B1: His6-CylA-27-412 (protein)
chain: MGSSHHHHHHSQDPNSLSNNISFFIDNSQTTAIEEIESELSSEKVDYIQEIGLVSFKNLDDSDRKFIGKYFNVSEGKKLPDFKPEEVNSSILNINILNKDFKSFNWPYKKILSHIDPVKEQLGKDITIALIDSGIDRLHPNLQDNNLRLKNYVNDIELDEYGHGTQVAGVIDTIAPRVNLNSYKVMDGTDGNSINMLKAIVDATNDQVDIINVSLGSYKNMEIDDERFTVEAFRKVVNYARKNNILIVASAGNESRDISTGNEKHIPGGLESVITVGATKKSGDIADYSNYGSNVSIYGPAGGYGDNYKITGQIDAREMMMTYYPTSLVSPLGKAADFPDGYTLSFGTSLATPEVSAALAAIMSKNVDNSKDSNEVLNTLFENADSFIDKNSMLKYKEVRIK
cleavage by CylA, MALDI-TOF MS [36]: the 5 amino acids were successfully removed | cleavage by CylA, MALDI-TOF MS [37]: the 5 amino acids were successfully removed | cleavage by CylA, MALDI-TOF MS [38]: The modified peptide was successfully digested upon incubation with CylA | cleavage by CylA, MALDI-TOF MS [39]: the leader peptide was successfully removed | cleavage by CylA, MALDI-TOF MS [40]: the leader peptides of both His6-ProcA1.7-GDVQAE and His6-NisA-GDVQAE were successfully removed | cleavage by CylA [41]: Incubation with CylA indeed resulted in cleavage and removal of the His6-tag sequence | cleavage by CylA, MALDI-TOF MS [42]: the leader peptides of both His6-ProcA1.7-GDVQAE and His6-NisA-GDVQAE were successfully removed | cleavage by CylA [43]: CylA cleanly removed the leader peptide from both substrates | cleavage by CylA, MALDI-TOF MS [44]: CylA specifically cleaved after Glu-1 for all three mutant peptides | cleavage by CylA, MALDI-TOF MS [45]: CylA specifically cleaved after Glu-1 for all three mutant peptides, albeit with a lower efficiency for the T-1G mutant | cleavage by CylA, MALDI-TOF MS [46]: CylA specifically cleaved after Glu-1 for all three mutant peptides | cleavage by CylA [47]: CylA cleanly removed the leader peptide from both substrates | cleavage by CylA, MALDI-TOF MS [48]: it also removed the leader peptides from linear CylLL and CylLS | cleavage by CylA, MALDI-TOF MS [49]: it also removed the leader peptides from linear CylLL and CylLS | cleavage by CylA, MS [50]: the enzyme also removed the entire leader peptides | cleavage by CylA, MS [51]: the enzyme also removed the entire leader peptides | cleavage by CylA [52]: it did not accept Glu or Lys in the P1′ position
